First the molecules themselves.
B1: SUMO-specific isopeptidase USPL1 (Homo sapiens), Q5W0Q7 (parent)
chain: MMDSPKIGNGLPVIGPGTDIGISSLHMVGYLGKNFDSAKVPSDEYCPACREKGKLKALKTYRISFQESIFLCEDLQCIYPLGSKSLNNLISPDLEECHTPHKPQKRKSLESSYKDSLLLANSKKTRNYIAIDGGKVLNSKHNGEVYDETSSNLPDSSGQQNPIRTADSLERNEILEADTVDMATTKDPATVDVSGTGRPSPQNEGCTSKLEMPLESKCTSFPQALCVQWKNAYALCWLDCILSALVHSEELKNTVTGLCSKEESIFWRLLTKYNQANTLLYTSQLSGVKDGDCKKLTSEIFAEIETCLNEVRDEIFISLQPQLRCTLGDMESPVFAFPLLLKLETHIEKLFLYSFSWDFECSQCGHQYQNRHMKSLVTFTNVIPEWHPLNAAHFGPCNNCNSKSQIRKMVLEKVSPIFMLHFVEGLPQNDLQHYAFHFEGCLYQITSVIQYRANNHFITWILDADGSWLECDDLKGPCSERHKKFEVPASEIHIVIWERKISQVTDKEAACLPLKKTNDQHALSNEKPVSLTSCSVGDAASAETASVTHPKDISVAPRTLSQDTAVTHGDHLLSGPKGLVDNILPLTLEETIQKTASVSQLNSEAFLLENKPVAENTGILKTNTLLSQESLMASSVSAPCNEKLIQDQFVDISFPSQVVNTNMQSVQLNTEDTVNTKSVNNTDATGLIQGVKSVEIEKDAQLKQFLTPKTEQLKPERVTSQVSNLKKKETTADSQTTTSKSLQNQSLKENQKKPFVGSWVKGLISRGASFMPLCVSAHNRNTITDLQPSVKGVNNFGGFKTKGINQKASHVSKKARKSASKPPPISKPPAGPPSSNGTAAHPHAHAASEVLEKSGSTSCGAQLNHSSYGNGISSANHEDLVEGQIHKLRLKLRKKLKAEKKKLAALMSSPQSRTVRSENLEQVPQDGSPNDCESIEDLLNELPYPIDIASESACTTVPGVSLYSSQTHEEILAELLSPTPVSTELSENGEGDFRYLGMGDSHIPPPVPSEFNDVSQNTHLRQDHNYCSPTKKNPCEVQPDSLTNNACVRTLNLESPMKTDIFDEFFSSSALNALANDTLDLPHFDEYLFENY

In one experiment the parent is B1. The note with it: with sumo3_human SUMO3, P55854.
sumo3_human SUMO3, P55854, sequence (P55854 whole entry): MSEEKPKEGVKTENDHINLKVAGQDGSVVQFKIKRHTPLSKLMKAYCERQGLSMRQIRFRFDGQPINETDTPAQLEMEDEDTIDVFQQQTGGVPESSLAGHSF
Regarding L340A, the “effect of a mutation on the interaction” value was “decreasing interaction”.

Consider L341A, for which the “effect of a mutation on the interaction” value is recorded as “decreasing interaction”.

A further experiment covers variants of B1. The settings on record: with sumo3_human SUMO3, P55854. The source holds these as a separate data set.
With L340A, the “effect of a mutation on the interaction” value is given as “disrupting interaction”.

For the variant L341A, the “effect of a mutation on the interaction” value was “disrupting interaction”.

In a further experiment the parent is B1. The note with it: with sumo3_human SUMO3, P55854. This is another data set of the same source.
Consider V495A, for which the “effect of a mutation on the interaction” value is listed as “decreasing interaction”.

Take I494A: the “effect of a mutation on the interaction” value is on record as “decreasing interaction”.

The variants in another experiment derive from B1. The settings on record: with sumo3_human SUMO3, P55854. This is another data set of the same source.
V495A: the “effect of a mutation on the interaction” value is “disrupting interaction”.

Regarding I494V, the “effect of a mutation on the interaction” value is “disrupting interaction”.

The next experiment covers variants of B1. The settings on record: with sumo3_human SUMO3, P55854. This is another data set of the same source.
Consider H421A, for which the “effect of a mutation on the interaction” value is given as “decreasing interaction”.

Variants of B1 are the subject of another experiment. The note with it: with sumo3_human SUMO3, P55854. The source holds these as a separate data set.
Regarding W237F, the “effect of a mutation on the interaction” value is recorded as “decreasing interaction”.

Variants of B1 are the subject of a further experiment. The settings on record: with sumo3_human SUMO3, P55854. This is another data set of the same source.
W237F: the “effect of a mutation on the interaction” value was “disrupting interaction”.

In a further experiment the parent is B1. The settings on record: with sumo3_human SUMO3, P55854. The source holds these as a separate data set.
For the variant W229L, the “effect of a mutation on the interaction” value is recorded as “decreasing interaction”.

The variants in the next experiment derive from B1. The settings on record: with sumo3_human SUMO3, P55854. This is another data set of the same source.
Regarding W229L, the “effect of a mutation on the interaction” value is “disrupting interaction”.

Variants of B1 are the subject of a further experiment. The note with it: with sumo3_human SUMO3, P55854. The source holds these as a separate data set.
E331A: the “effect of a mutation on the interaction” value is listed as “decreasing interaction”.

Source of the values: IntAct's records for PubMed 22878415.
